How the values were obtained:
A2AR [1] = target: T1, A2AR (Homo sapiens, UniProt P29274); assay: A2AR cell functional cAMP assays (allosteric and antagonistic); details: NECA titration, IgG titration (NECA 0.5 uM), IgG titration (NECA 10 uM)
Method: Allosteric and Antagonistic cAMP Assays were Performed Using A2A Cell Lines

A2b = target: T2, A2b (Homo sapiens, UniProt P29275); assay: A2b functional antagonistic cAMP assay (CHO-K1 cells); assay type: cell-based; details: IgG 3× titration from 1000 nM, NECA 5 nM
T2 construct: expressed in transfected cells; host or cells: CHO-K1
T2 sequence (P29275 1-332): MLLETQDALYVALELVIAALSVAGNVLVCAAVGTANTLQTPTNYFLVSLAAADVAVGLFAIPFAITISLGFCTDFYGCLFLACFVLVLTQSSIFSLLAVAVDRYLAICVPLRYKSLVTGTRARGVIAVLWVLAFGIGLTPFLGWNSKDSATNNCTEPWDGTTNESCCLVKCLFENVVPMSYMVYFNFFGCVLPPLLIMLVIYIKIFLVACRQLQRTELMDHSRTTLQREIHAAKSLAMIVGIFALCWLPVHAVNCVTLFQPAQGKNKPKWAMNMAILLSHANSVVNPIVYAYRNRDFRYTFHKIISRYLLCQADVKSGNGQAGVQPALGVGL
Method: FIG. 46 depicts the functional cAMP assay performed on selected A2b antibodies. CHO-K1 cells were incubated with an A2b antibody. Next, the cells were stimulated using NECA. Activation of A2b was monitored based on 3′-5′-cyclic adenosine monophosphate (cAMP) production in the cell lines.
First, cells were pre-incubated with A2A-17, A2A-19, A2A-26, A2A-27, A2A-35, A2A-36, and A2A-83 at a 3× titration starting at 100 nM. […] The results are depicted in FIGS. 47B-47C.
An antagonistic cAMP assay at high levels of IgC and low ligand levels was performed. Cells were pre-incubated with A2A-17, A2A-19, A2A-26, A2A-27, A2A-35, A2A-36, A2A-83, and A2A-72 at a 3× titration starting at 1000 nM. […] The results are depicted in FIG. 47D. […] Properties of A2b are depicted in Table 23.

A2AR [2] = target: T1, A2AR; assay: T cell activation assay (PBMCs, NECA, anti-CD3ε/CD28 beads, IFN-γ release); assay type: cell-based; set-up: endogenous in cells; host or cells: PBMCs; details: for T cell activation: NECA 1 μM, IFN-γ release
Method: The cells were then activated by magnetic beads coating with anti-CD3ε/CD28 antibodies. Three days after incubation, the supernatant was collected for detecting IFN-γ release and evaluating T cell activation. ZM-241385 is potent and used as a selective small molecule A2A antagonist control.
A primary T-cell activation assay was performed as described above. Data is seen in FIG. 33D and Table 21.

[3] = tested on: human colon carcinoma (Colo205); assay: In vivo colon carcinoma model, tumor volume; details: mice with Colo205, tumor volume over 30 days
Method: Mice with human colon carcinoma (Colo205) were divided into 4 groups. Group 1 was the isotype control, Group 2 mice were treated with Anti-PD1, Group 3 mice were treated with variant A2A-77 and Group 4 mice were treated with variant A2A-81. Tumor volume is measured over 30 days. Results are depicted in FIGS. 34A-34D.
Additional studies were performed with mice treated with 10 mg/kg variant A2A-51 (Group 5), A2A-28 (Group 6), Ab7/PD1TAO15 (Group 7), and AZD4635 (Group 8). Mice were also treated with 20 mg/kg according to the schedule in FIG. 34E. Data is seen in FIGS. 34F-34K.

T1 sequence (P29274 whole entry): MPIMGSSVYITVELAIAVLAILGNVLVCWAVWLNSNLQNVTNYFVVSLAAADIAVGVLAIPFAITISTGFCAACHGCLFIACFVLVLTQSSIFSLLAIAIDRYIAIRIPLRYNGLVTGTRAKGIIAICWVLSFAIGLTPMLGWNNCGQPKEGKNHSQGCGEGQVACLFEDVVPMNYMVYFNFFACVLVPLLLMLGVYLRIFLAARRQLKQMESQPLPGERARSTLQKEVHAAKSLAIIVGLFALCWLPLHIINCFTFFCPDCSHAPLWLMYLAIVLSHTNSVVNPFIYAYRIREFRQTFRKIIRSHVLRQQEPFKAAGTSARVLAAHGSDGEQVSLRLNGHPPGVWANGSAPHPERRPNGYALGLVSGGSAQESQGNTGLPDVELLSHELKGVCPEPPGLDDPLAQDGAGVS

Molecule	function in cAMP assays (A2AR [1])	T cell activation (A2AR [2])	also measured
A2A-19: A2AR variant; VH CDR1-3 SEQ ID NO 24/113/202 (antibody, V domains shown) VH: EVQLVESGGGLVKPGGSLRLSCAASGFTFSGYAMNWVRQAPGKGLEWVSTISGSGASTYYADSVKGRFTISRDNSKNTLYLQMNSLRAEDTAVYYCAAARGYKRWRLGRRYDYWGQGTLVTVSS VL: DIQMTQSPSSLSASVGDRVTITCRASQSISDYLNWYQQKPGKAPKLLIYTASTLQSGVPSRFSGSGSGTDFTLTISSLQPEDFATYYCEQSYSTPWTFGGGTKLEIK	improved function		
A2A-26: A2AR variant; VH CDR1-3 SEQ ID NO 31/120/209 (antibody, V domains shown) VH: EVQLLESGGGLVQPGGSLRLSCAASGFTFSTYAMGWVRQAPGKGLEWVSGISGSAGSTYYADSVKGRFTISRDNSKNTLYLQMNSLRAEDTAVYYCAAARGHWRWRLGRRYDYWGQGTLVTVSS VL: DIQMTQSPSSLSASVGDRVTITCRASQTISRYLNWYQQKPGKAPKLLIYSASTLQSGVPSRFSGSGSGTDFTLTISSLQPEDFATYYCQQSYSTPHTFGGGTKVEIK	improved function		
A2A-27: A2AR variant; VH CDR1-3 SEQ ID NO 32/121/210 (antibody, V domains shown) VH: EVQLVESGGGLVKPGGSLRLSCAASGFTFSSYAMAWVRQAPGKGLEWVSAISGSGGSTYFADSVKGRFTISRDNSKNTLYLQMNSLRAEDTAVYYCAAARGYWRWRLWRRYDYWGQGTLVTVSS VL: DIQMTQSPSSLSASVGDRVTITCRASQSIGSYLNWYQQKPGKAPKLLIYGASNLQSGVPSRFSGSGSGTDFTLTISSLQPEDFATYYCQQGYSAPRTFGGGTKLEIK	improved function		A2a/A2b antagonist properties (A2b): A2a antagonist that cross links with A2b, while also being an A2b antagonist
A2A-17: A2AR variant; VH CDR1-3 SEQ ID NO 22/111/200 (antibody, V domains shown) VH: EVQLVESGGGLVKPGGSLRLSCAASGFNIGNTYMHWFRQAPGKGLEWVGVINPNYGTTRYNDSVKGRFTISRDNSKNTLYLQMNSLRAEDTAVYYCARDYGSSSFDYWGQGTLVTVSS VL: DIQMTQSPSSLSASVGDRVTITCKASQSVRNDVVWYQQKPGKAPKLLIYRGNTLRPGVPSRFSGSGSGTDFTLTISSLQPEDFATYYCQQYYGIPLTFGQGTKLEIK	improved function		
A2A-24: A2AR variant; VH CDR1-3 SEQ ID NO 29/118/207 (antibody, V domains shown) VH: EVQLVESGGGLVKPGGSLRLSCAASGFNIGNTYMHWFRQAPGKGLEWVGVINPNYGTTRYNDSVKGRFTISRDNSKNTLYLQMNSLRAEDTAVYYCARDYGSSSFDYWGQGTLVTVSS VL: DIQMTQSPSSLSASVGDRVTITCKASQSVRNDVVWYQQKPGKAPKLLIYRGNTLRPGVPSRFSGSGSGTDFTLTISSLQPEDFATYYCQQYYGIPLTFGQGTKLEIK	improved function		
A2A-53: A2AR variant; VH CDR1-3 SEQ ID NO 58/147/236 (antibody, V domains shown) VH: EVQLVESGGGLVKPGGSLRLSCAASGFNIIDDYMHWVRQAPGKGLEWVGMITDTGEPTDADSVKGRFTISRDNSKNTLYLQMNSLRAEDTAVYYCVYDYIYAMDYWGQGTLVTVSS VL: DIQMTQSPSSLSASVGDRVTITCKASQNMGSNVAWYQQKPGKAPKLLIYSASHRSSGVPSRFSGSGSGTDFTLTISSLQPEDFATYYCQQWNYPRITFGQGTKLEIK		T cell activation was observed	
A2A-31: A2AR variant; VH CDR1-3 SEQ ID NO 36/125/214 (antibody, V domains shown) VH: EVQLVESGGGLVKPGGSLRLSCAASGYLFTDYNMNWVRQAPGKGLEWVGWIYPGTGNTYNDSVKGRFTISRDNSKNTLYLQMNSLRAEDTAVYYCTALYYGSSWERYFDVWGQGTLVTVSS VL: DIQMTQSPSSLSASVGDRVTITCRASQSISDYLNWYQQKPGKAPKLLIYGASPRESGVPSRFSGSGSGTDFTLTISSLQPEDFATYYCQQDNIWPYTFGQGTKLEIK		T cell activation was observed	
A2A-51: A2AR variant; VH CDR1-3 SEQ ID NO 56/145/234 (antibody, V domains shown) VH: EVQLVESGGGLVKPGGSLRLSCAASGYTFNDYYINWVRQAPGKGLEWVGDINPNNGANIYNDSVKGRFTISRDNSKNTLYLQMNSLRAEDTAVYYCARNYGSSYYALDYWGQGTLVTVSS VL: DIQMTQSPSSLSASVGDRVTITCSASSSLSYMHWYQQKPGKAPKLLIYGASPRESGVPSRFSGSGSGTDFTLTISSLQPEDFATYYCRQMSSYPPTFGQGTKLEIK		T cell activation was observed	T cell activation with more (high) NECA (A2AR [2]; high NECA): still works well; tumor size / tumor volume [3]: ability to reduce tumor volume

Reference: US12202905B2, “Methods and compositions relating to adenosine receptors” (Twist Bioscience Corporation, priority 2021, dated 2025)
